Data: patent US20220364069A1, “METHOD FOR THE PRODUCTION OF AN ENZYMATIC COMPOSITION COMPRISING A RECOMBINANT ENDOPEPTIDASE” (NEMYSIS LIMITED, priority 2019, published 2022)

What was measured:
trypsin = test: Resistance of E40 to trypsin (suc-Ala-Ala-Pro-Phe-pNA cleavage); format: biochemical; settings: pH 6 and 7; protease 1:2 (w/w) versus E40; 110 minutes, 37° C.
Experimental: The resistance of recombinant E40, obtained by the method of the invention, to the proteolytic activity of gastric (pepsin) and duodenal (trypsin) digestive proteases was further evaluated (FIG. 4), using suc-Ala-Ala-Pro-Phe-pNA as substrate. Aqueous solutions of E40 enzyme, alone or in combination with pepsin and/or trypsin (0.2 mg/ml E40, 0.1 mg/ml Pepsin or Trypsin), were diluted in citrate-phosphate buffer containing suc-Ala-Ala-Pro-Phe-pNA at pH 4, 4.5 and 5 for pepsin, and at pH 6 and 7 for trypsin. Final concentrations in reaction mix were: 200 μM substrate, 1-4 nM E40 for incubations at pH 4 to 5, or 4 nM and 7 nM for incubations at pH 6 or 7, respectively (E40 concentration was adjusted according to optimum pH). The digestive protease was maintained in the ratio 1:2 (w/w) versus E40.
Reactions (200 μl volume in 96-wells flat bottom ptiter plates) were protracted for 110 minutes at 37° C. Absorbance was monitored every 10 min for determining the enzymatic activity. Pepsin and trypsin without E40 were processed in the same way and tested in the same condition as reference control. Each analysis was carried out in duplicate.

33-mer gliadin peptide = test: Digestion of 33-mer gliadin peptide monitored by LC-MS/MS; format: biochemical
Experimental: The 33-mer gliadin peptide degradation was monitored by LC-MS/MS, before (FIG. 5, panel A) and after (FIG. 5, panels B-E) digestion by recombinant E40. Digestion was performed in U-bottom 96-wells microtiter plate; 33-mer was diluted in citrate phosphate buffer (pH 5) to 5 mg/ml, mixed with the enzyme preparation comprising recombinant E40 diluted in the same buffer (1:48 enzyme vs substrate molar ratio) and incubated at 37° C. At the time points 0, 15, 30 and 60 minutes, aliquots (10 μl) were taken, and reactions were stopped by boiling for 3 minutes before being analyzed by LC-MS/MS.
Samples were analyzed by HPLC system Accela Instrument (Thermo Fisher Scientific, San Jose, Calif.) coupled to both UV detector and LTQ-XL ion trap mass spectrometer (Thermo Fisher Scientific). […] E40 cleaving site occurs between F-P and Q-L residues of gliadin, leading to short peptides lacking of T-cell stimulatory capacity (FIG. 5, F)^3. This finding was also observed at more diluted E40 concentration (1:96, molar ratio): in that case complete 33-mer degradation took 30 minutes (not shown).

gliadin = test: Digestion of whole gliadin monitored by RP-HPLC; format: biochemical, Triticum aestivum; settings: pH 4, 37° C., 30 min digestion
Experimental: The ability of E40 to hydrolyze harmful peptides in whole gliadin proteins was assessed by HPLC analysis (FIG. 6). Gliadin was extracted from whole flour of Triticum aestivum (Sagittario cultivar) according to Mamone et al^4. Gliadin (1 mg) was dissolved in 1 ml of 0.1 M ammonium acetate pH 4 and incubated with E40 enzymes (enzyme:substrate, 1:20), at 37° C. for different time points (0, 15, 30, 60, 120, 240 minutes). The enzymatic hydrolysis was stopped by boiling samples for 5 minutes. Samples were lyophilized and stored at −40° C. until further chemical analysis.
SDS-PAGE was performed on a Tetra-cell Mini-PROTEAN system (Bio-Rad, Milan, Italy). Digested gliadin samples were dissolved in Laemli buffer (0.125 M Tris-HCl pH 6.8, 5% SDS, 20% glycerol, 0.02% bromophenol blue) and loaded onto precast 12% acrylamide gel (Bio-Rad). Electrophoresis was carried out under non-reducing conditions, omitting β-mercaptoethanol in the Laemli buffer. Protein bands were visualized with silver blue (Coomassie Brilliant Blue G-250) and digitalized using a LABScan scanner (Amersham Bioscience/GE Healthcare, Uppsala, Sweden). RP-HPLC was carried out on a RP-HPLC using an HP 1100 Agilent Technology modular system (Palo Alto, Calif., USA). […] Eluent A was 0.1% TFA (v/v) in Milli-Q water, eluent B was 0.1% TFA (v/v) in acetonitrile. […] The column effluent was monitored at 220 and 280 nm with an UV-Vis detector. […]

gluten of bread = test: In vitro oral-gastric digestion of bread, gluten by Elisa-R5 competitive; format: biochemical, T. aestivum
Experimental: In order to evaluate the efficiency of E40 enzyme as oral supplement to abolish the gluten intake in patients, in vitro oral-gastric digestion model was applied. Digestion step of bread (T. aestivum) was carried out under simulated physiological condition including oral mastication and presence of digestive gastric enzymes. Digestion time was selected according to the average time of chyme's transit in the gastric compartments. E40 enzyme preparation was added at beginning of the simulated gastric phase. The destruction of the T cell epitopes and toxic peptides was tested using monoclonal antibodies (Elisa-R5 competitive), according to the manufacturer's and to the AOAC guidelines.

Sequence of 33-mer gliadin peptide (as listed by the source): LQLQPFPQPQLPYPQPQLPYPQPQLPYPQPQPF

B1: E40: Actinoallomurus endopeptidase with glutenase activity, sequence comprising SEQ ID NO: 1; recombinant histidine-tagged form SEQ ID NO: 2 from S. lividans (protein)
chain: AAPSGLSPANLQSAYKLPSSTAGSGQTVAIVDAYDAPTAEADLNVYRSQFGLGACTTANGCFKKVDQNGGTSYPRKDGGWAQEISLDLDMVSAVCPNCKIVLVEAKTNSFANLGTAENTAASLANVISNSYGGSDASDASYGSYYNHPGKAITVSSGDAGYGVEYPASSHYVTAVGGTSLRTASTSRGWSETAWSGAGSGCSAYNTALSGQSGLTGCSRRAVADVSAVADPATGVAVYDSTAYQGQSGWMVFGGTSVAAPIIGGVYGLAANAASIDNNYPYAHTSSLFDVTSGSNGTCTTTKWCTAGTGWDGPTGLGTPNGTGAFGHHHHHH
modifications: Actinoallomurus
E40 cleaving activity in presence of trypsin (trypsin): unaffected | time to complete disappearance of native 33-mer peptide signal (33-mer gliadin peptide; 1:48 enzyme vs substrate molar ratio, pH 5, 37° C.): 15 min | time to complete 33-mer degradation (33-mer gliadin peptide; 1:96 molar ratio): 30 min | peaks assigned to gliadins after 30 min (gliadin): markedly reduced | gluten content of bread digest (Elisa-R5) (gluten of bread; E40 added at beginning of simulated gastric phase): 16.2 ppm (ng/mL) | gluten content of digested bread including E40 (gluten of bread; oral-gastric digest): < 20 ppm
